Data on nine molecules can be found in patent publication US20180162952A1 (AbbVie / Abbott, published 2018).

Experiment [1] addresses T1, hPTK7-His (soluble His-tagged human PTK7 extracellular domain) (human, UniProt Q13308 31-704).
T1 construct: also called PTK7-ECD-His; monomeric recombinant hPTK7-His (isoform a)
T1 sequence: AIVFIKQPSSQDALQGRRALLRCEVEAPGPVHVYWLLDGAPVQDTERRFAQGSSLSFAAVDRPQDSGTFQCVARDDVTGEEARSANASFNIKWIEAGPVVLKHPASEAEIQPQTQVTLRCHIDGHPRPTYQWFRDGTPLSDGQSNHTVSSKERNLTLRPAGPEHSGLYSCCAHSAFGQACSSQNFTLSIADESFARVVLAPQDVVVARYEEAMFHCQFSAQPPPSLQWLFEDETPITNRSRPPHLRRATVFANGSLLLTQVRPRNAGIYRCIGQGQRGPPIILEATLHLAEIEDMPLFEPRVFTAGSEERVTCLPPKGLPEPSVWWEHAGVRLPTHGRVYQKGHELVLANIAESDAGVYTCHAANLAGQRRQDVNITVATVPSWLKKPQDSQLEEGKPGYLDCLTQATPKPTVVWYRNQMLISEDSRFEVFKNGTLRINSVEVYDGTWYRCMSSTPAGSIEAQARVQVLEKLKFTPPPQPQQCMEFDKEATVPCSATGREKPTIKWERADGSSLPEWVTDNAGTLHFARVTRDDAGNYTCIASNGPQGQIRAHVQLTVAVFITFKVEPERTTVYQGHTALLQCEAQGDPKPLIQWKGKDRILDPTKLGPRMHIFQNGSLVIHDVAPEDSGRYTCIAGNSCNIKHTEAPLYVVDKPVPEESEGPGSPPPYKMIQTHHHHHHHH
The experiment in a line: Biacore (superscript B); column Affinity (nM).

In experiment [2] the target is T1, hPTK7-His (soluble His-tagged human …). Nature of the experiment: Biacore (paragraph 369 names ForteBio for FIGS. 7C-7E).
In the next experiment the target is T2, murine PTK7-His (murine, UniProt Q8BKG3 23-696, limits assumed).
T2 construct: also called mouse PTK7-His; mouse PTK7
T2 sequence (looked up): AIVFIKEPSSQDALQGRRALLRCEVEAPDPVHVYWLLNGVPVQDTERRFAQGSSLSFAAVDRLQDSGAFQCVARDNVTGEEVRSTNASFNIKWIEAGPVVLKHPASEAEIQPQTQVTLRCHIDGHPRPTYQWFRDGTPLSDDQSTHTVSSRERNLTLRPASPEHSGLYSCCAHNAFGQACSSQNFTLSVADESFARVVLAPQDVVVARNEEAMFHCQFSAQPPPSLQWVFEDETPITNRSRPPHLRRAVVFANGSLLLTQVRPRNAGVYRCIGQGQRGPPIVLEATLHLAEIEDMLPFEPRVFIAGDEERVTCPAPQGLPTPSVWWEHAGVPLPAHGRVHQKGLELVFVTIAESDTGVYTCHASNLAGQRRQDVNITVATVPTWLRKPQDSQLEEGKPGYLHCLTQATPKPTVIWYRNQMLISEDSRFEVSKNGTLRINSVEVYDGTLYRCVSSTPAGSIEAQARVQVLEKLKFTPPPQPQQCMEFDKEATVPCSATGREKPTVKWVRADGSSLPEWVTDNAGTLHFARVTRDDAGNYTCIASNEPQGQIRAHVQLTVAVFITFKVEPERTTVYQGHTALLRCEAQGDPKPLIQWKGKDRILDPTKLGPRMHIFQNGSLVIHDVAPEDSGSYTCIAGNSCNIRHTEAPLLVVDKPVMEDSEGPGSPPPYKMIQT
Nature of the experiment: ForteBio, concentration series of recombinant monomeric antigen.

In experiment [3] the target is T3, human PTK7, full length, expressed on transduced cells (human, UniProt Q13308 31-1070).
T3 sequence: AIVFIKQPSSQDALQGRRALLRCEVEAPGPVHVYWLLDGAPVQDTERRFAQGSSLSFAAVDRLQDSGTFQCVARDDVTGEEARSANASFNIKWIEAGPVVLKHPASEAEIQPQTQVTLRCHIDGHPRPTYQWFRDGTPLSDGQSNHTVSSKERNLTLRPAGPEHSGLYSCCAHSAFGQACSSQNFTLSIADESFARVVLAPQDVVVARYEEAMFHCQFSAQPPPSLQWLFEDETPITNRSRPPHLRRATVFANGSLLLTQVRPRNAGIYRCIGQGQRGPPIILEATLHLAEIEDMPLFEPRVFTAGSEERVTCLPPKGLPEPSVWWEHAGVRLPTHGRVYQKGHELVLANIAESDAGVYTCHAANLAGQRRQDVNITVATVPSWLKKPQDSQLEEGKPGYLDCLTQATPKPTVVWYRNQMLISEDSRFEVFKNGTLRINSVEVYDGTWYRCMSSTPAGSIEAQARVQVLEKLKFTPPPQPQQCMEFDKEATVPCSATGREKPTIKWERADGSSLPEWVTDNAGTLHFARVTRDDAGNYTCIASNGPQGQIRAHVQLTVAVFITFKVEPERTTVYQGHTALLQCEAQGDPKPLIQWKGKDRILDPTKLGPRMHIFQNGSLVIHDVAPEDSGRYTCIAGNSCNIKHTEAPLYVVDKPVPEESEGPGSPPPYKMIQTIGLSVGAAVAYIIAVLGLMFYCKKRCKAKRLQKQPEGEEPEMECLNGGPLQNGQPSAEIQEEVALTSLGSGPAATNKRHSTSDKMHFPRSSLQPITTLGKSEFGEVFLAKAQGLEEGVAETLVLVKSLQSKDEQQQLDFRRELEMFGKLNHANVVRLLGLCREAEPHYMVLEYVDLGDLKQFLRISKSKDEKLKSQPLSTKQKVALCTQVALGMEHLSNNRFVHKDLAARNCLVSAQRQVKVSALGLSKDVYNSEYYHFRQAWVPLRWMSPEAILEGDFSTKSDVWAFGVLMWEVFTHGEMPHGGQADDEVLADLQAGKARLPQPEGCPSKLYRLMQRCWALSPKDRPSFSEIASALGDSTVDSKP
The experiment in a line: cell-based or functional assay.

The target of experiment [4] is T3, human PTK7, full length, expressed on …. Nature of the experiment: cell-based or functional assay. This is another data set of the same source.
The target of experiment [5] is T1, hPTK7-His (soluble His-tagged human …). Nature of the experiment: SPR, Biacore, antigen at 25, 12.5 and 6.25 nM, 1:1 Langmuir model; humanized construct.
Experiment [6] has the same target. Nature of the experiment: SPR, Biacore, antigen at 25, 12.5 and 6.25 nM, 1:1 Langmuir model; murine parent antibody.
The target is the same in experiment [7]. The experiment in a line: ForteBio (superscript F); column Affinity (nM).

B1: SC6.41 (antibody, V domains shown)
VH: EVQLQQSGAESVRSGASVKLSCTASGLNIKDYYMHWVNLRPEQGLEWIGWIDPENGDTEYAPEFQGKATMTADTSSNTAYLQLSSLTSEDTAVYYCNACNYGSAYGYWGQGTTLTVSS
VL: DIVLTQATPSVPVTPGESVSISCRSSKSLLHTKGDTYLYWFLQRPGQSPQLLIYRMSNLASGVPDRFSGSGSGTVFTLRISRVEAEDVGVYYCMQHLEYPFTFGSGTKLEIKR
notes: Murine monoclonal antibody, kappa light chain
For the molecule B1, the Kd in experiment [1] and in experiment [2] was 1 nM throughout. In addition, the binding result with murine PTK7-His is reported as “binds”. Also, in experiment [3], the “EC50, saporin (Fab-ZAP) cell killing, 293.PTK7 Cells” value (“EC50, saporin (Fab-ZAP) cell killing” below) amounted to 0.0023 nM.

B2: SC6.58 (antibody, V domains shown)
VH: EVKLLESGGGLVQPGGSLKLSCAASGFDFSRYWMSWVRQAPGKGLEWIGDLNPDSSAINYTPSLKDKFIISRDNAKNTLYLQMSKVRSEDTALYYCTLITTLVPYTMDFWGQGTSVTVSS
VL: ETTVTQSPASLSMAIGEKVTIRCITNTDIDDDMNWYQQKPGEPPKLLISEGNGLRPGVPSRFSSSGYGTDFVFTIENMLSEDVADYYCLQSDNLPLTFGSGTKLEIK
notes: as for B1
As to B2, the Kd in experiment [1] and in experiment [2] was 0.5 nM in each case. Also, in the experiment with murine PTK7-His, the binding result is “binds”. The “EC50, saporin (Fab-ZAP) cell killing” value in experiment [3] was 0.0104 nM.

B3: hSC6.24 (antibody, human IgG1, V domains shown)
VH: QVQLVQSGPEVKKPGASVKVSCKASGYTFTDYAVHWVRQAPGKRLEWIGVISTYNDYTYNNQDFKGRVTMTRDTSASTAYMELSRLRSEDTAVYYCARGNSYFYALDYWGQGTSVTVSS
VL: EIVLTQSPATLSLSPGERATLSCRASESVDSYGKSFMHWYQQKPGQAPRLLIYRASNLESGIPARFSGSGSGTDFTLTISSLEPEDFAVYYCQQSNEDPWTFGGGTKLEIKR
Regarding B3, in experiment [4], the “reduction in viability of 293.PTK7 cells at 100 pM (Fab-ZAP human)” value (from here on “reduction in viability of 293.PTK7 cells”) is greater than 80%.

B4: hSC6.23 (antibody, V domains shown)
VH: QITLKESGPTLVKPTQTLTLTCTFSGFSLSTSNMGVGWIRQPPGKALEWLAHIWWDDDKYYSPSLKSRLTITKDTSKNQVVLTMTNMDPVDTATYYCVRSNYGYAWFAYWGQGTLVTVSS
VL: DIQMTQSPSSLSASVGDRVTITCKASQDIYPYLNWFQQKPGKAPKTLIYRTNRLLDGVPSRFSGSGSGTDFTFTISSLQPEDIATYYCLQYDEFPLTFGAGTKLEIK
notes: Humanized; also called humanized SC6.23
On to B4, for which the “reduction in viability of 293.PTK7 cells” value in experiment [4] is greater than 80%. In experiment [5], the dissociation constant (Kd) came out at 3.9 nM.

B5: hSC6.58 (antibody, human IgG1, V domains shown)
VH: EVQLVESGGGLVQPGGSLRLSCAASGFDFSRYWMSWVRQAPGKGLEWIGDLNPDSSAINYVDSVKGRFTISRDNAKNSLYLQMNSLRAEDTAVYYCTLITTLVPYTMDFWGQGTSVTVSS
VL: ETTLTQSPAFMSATPGDKVNISCITNTDIDDDMNWYQQKPGEAAILLISEGNGLRPGIPPRFSGSGYGTDFTLTINNIESEDAAYYFCLQSDNLPLTFGSGTKLEIKR
notes: Humanized; also called humanized SC6.58
In turn, B5 registered a Kd in experiment [2] of 1 nM. Moreover, in experiment [4], the “reduction in viability of 293.PTK7 cells” value was greater than 80%.

B6: SC6.23 (antibody, V domains shown)
VH: QVTLKESGPGILKPSQTLSLTCSFSGFSLSTSNMGVGWIRQPSGKGLEWLAHIWWDDDKYYNPSLKSQLTISKDTSRNQVFLKITSVDTEDTATYYCVRSNYGYAWFAYWGQGTLVTVSA
VL: DIKMTQSPSSMYASLGERVTITCKASQDIYPYLNWFQQKPGKSPKTLIYRTNRLLDGVPSRFSGSGSGQDYSLTISSLDYEDMGIYYCLQYDEFPLTFGAGTKLELK
notes: Murine monoclonal antibody, kappa light chain; also called murine SC6.23
B6: the binding result in the experiment with murine PTK7-His is given as “binds”. In addition, the “EC50, saporin (Fab-ZAP) cell killing” value in experiment [3] worked out at 0.0011 nM. Further, in experiment [6], the Kd came to 2.3 nM.

B7: hSC6.41 (antibody, human IgG1, V domains shown)
VH: QVQLVQSGAEVKKPGASVKVSCKASGYTFKDYYMHWVRQAPGQGLEWMGWIDPENGDTEYAPEFQGRVTMTRDTSTSTVYMELSSLRSEDTAVYYCNACNYGSAYGYWGQGTTLTVSS
VL: DIVMTQSPLSLPVTPGEPASISCRSSKSLLHTKGDTYLYWFLQKPGQSPQLLIYRMSNRASGVPDRFSGSGSGTDFTLKISRVEAEDVGVYYCMQHLEYPFTFGQGTKLEIKR
notes: Humanized; also called humanized SC6.41
In experiment [2], B7 returned a dissociation constant Kd of 2.1 nM.

B8: SC6.24 (antibody, V domains shown)
VH: QVQLQQSGPEVVRPGVSVKISCKGSGYTFTDYAVHWVKLSHAKSLEWIGVISTYNDYTYNNQDFKGKATMTVDKSSSTAYMELARLTSEDSAIYYCARGNSYFYALDYWGQGTSVTVSS
VL: DIVLTQSPASLAVSLGQRATISCRASESVDSYGKSFMHWYQQRPGQPPKLLIYRASNLESGIPARFSGSGSRTDFTLTINPVEADDVATYYCQQSNEDPWTFGGGTKLEIK
notes: as for B1
Turning to B8, the Kd in experiment [1] and in experiment [2] was 0.6 nM each time. In the experiment with murine PTK7-His, the binding result is reported as “binds”. In addition, the “EC50, saporin (Fab-ZAP) cell killing” value in experiment [3] worked out at 0.0023 nM.

B9: SC6.21 (antibody, V domains shown)
VH: DVQLQESGPGLVKPSQTLSLTCSVPDYSITSDYHWHWIRQFPGNKLEWMGYISSRGSTNYNPSLKNRISITHDTSENQFFLKLTSVTTEDSATYYCAGLSQLALDYWGQGTTLTVSS
VL: DIVMSQSPSSLAVSVGEKVTLSCKSSQSLLYSSTQNNYLAWYQQTPGQSPKLLIYWASTRESGVPDRFTGSGSGTDFTLTISSVKAEDLAVYYCQQYYSYPWTFGGGTKLEIK
notes: Murine monoclonal antibody
On to B9, for which, in experiment [7], the Kd is less than 0.1 nM. In addition, the binding result with murine PTK7-His was “binds”. Further, the “EC50, saporin (Fab-ZAP) cell killing” value in experiment [3] amounted to 0.0306 nM.
